According to the DeepSol protein solubility set:

Assay: soluble on expression in E. coli; label from the status in PepcDB or PDB records

Row | Sequence | soluble on expression in E. coli
1 | MGSDKIHHHHHHMKILMLCREPRLYSCQRLKQACQDRNIQLDILDPNRMLIKLAVIDAQMQAQLYYQAGEIYDKCRAEPSLLAEYDAVLPRFGVSSTMMGCRVLDYFAAKKVVILNNSTAFRLARDKWSSLQVLAAQHIPIPTSSFAGALFSTAAHISQHRIPLVIKTCSGSQGVGVMLSESKVHSVSLLQTLQQAKVDNLLQDFVVEARGQDIRAFVIGDRVVAAIERNGLENDFRANIHQGGSASVIQLNTAEQQLAVLAAKTIGLDVAGVDLIRSNKGLLVLEVNACPGLDGIEKASKLDIAGLIIDYLLAMKK | not soluble
2 | MGSDKIHHHHHHMKIQNTEWGYIEWKHTYDENNPKQAMNIYIAVTMPGKKHFNHVHYGQEQMIYILEGEGLYIINGVWKPFYQGMIFYIESGSTHETINTGDREIKELIVSNNVDDVGESEIIDINPNNYLKKTLINYSESTLNLYAAVESIRGQFIDPFKIPLIIYDDSWNIVLKNPYFPLFCFEKCNPMKFPQNCDCMNQKSSNQFVCEYGITIYNIPILYKSNSIGVIRGGYVLLSDLNLDTEHNNLYDIPEGAARSIKRLLKQISKNIINFCSFNDIRKDLQEKEKTIARTYHYGEQLEMNLKVAQDMVTNLRINHHFLFNTLNSMASIALDDGSYDLYSAIIDLSRMFRYTMRSDLRFVELESEILYIKNYLNLQKLRYGDALKVKYLIPEKLYNLSVPFNFIQPIVENAFTHGFRDIDTEKRIEIIARLDSQYAIIEIHNNGTILDGNNIDKIKAGIRSNNGHGLSLIYTKFTSAYGNNFDMDIKSSDNEGTYIMIKIPIENYKEYV | not soluble
3 | MGSDKIHHHHHHMKITNFEQTGLCEIEGILSIENTENIEVSELREILKCANVSFVLEGINRLQSTLICELKASYVQQSQRYVTLKENSFDLPDLRHEDELKAKELLRKAFELYEEMSRLKEGQFKGRPKAENYLYGIPIEDARYILPLACKTNISMAMNGEKLIDFFYLLNDRHYSEIFSDLKKLVLSKLPEKLSLFLSKLKSNYNRKLIENFYKSAFDKISECDNIVLLNSFEDLDLKVGLGAITSTHDKTPSEVMELWGDNATEKAKGVSERVLGYGHESIAEQARTTFGMMCSMVTYHQQIRHRLSENHREALFNIIQDEKREVVVPSTVKESEFYNRFVELTHEFKKFRKYVLKEYGEEKSLNFLLNCDRIKLVISTNARIDCQMLADRICFNAQWEIRELSTKKLEKLRKLSQVLYVKALPSCVFGKCKEGKFTCGKQMIMKNKFA | not soluble
4 | MGSDKIHHHHHHMKIVVAKNIGFCFGVERAIRTVEELLDEGKKVVTDGEIVHNKQVMEQLTKKGLKVSSEMTDGEVFVVRAHGIPKDRLEELKKIFPEVVDLTCPIVSQLFKTAQRYAKERKVIVFGKEDHPEMVALRGYAPAIVTKVPFKLEEKKVVFLSQTTSSLEEYKEFVAAMIRMNEFEEAVFLNTICPVTVNREREVEELSKICDLSIVVGGKHSSNTGKLFRIASKHSKTIWIESPDELPADVVKYGTVCVFSGTSTPNSLIENVVRKLKEMEGKRDGTI | not soluble
5 | MGSDKIHHHHHHMKKEQIIQGPCTIKVLEGEARILGIEIQKNDLLTIPSDKTYTLVYDENTRLETDCKKLLDNLNLRWDEIVEEIINTVGVVLLLGNVDSGKTYLTNLFTNLATSYLKIIDADVGQSTLFLPTFIAELKPMRKTLNLEELGYDTLEFFGDITPSTNPRLHVQKILRLYETTPKERLTVIDTDGWTVGLNSMLHKFELIYTIDPDYIIVFDQKIKDSLPENYRNKAILLKSVNLHKSRSERKANRIAKYERYFKEAKNIKTLSENLLGKQISNILYCAWGEYIQLSDEEPCTDYYIPLNLLKGALLGIIENKKVIGAALLDDLKENEITILSRVNKFTGLVLGYISLNDKFEERRIRFRKCKS | not soluble
6 | MGSDKIHHHHHHMKKIAIFLPDLRAGGAEKVALLLSNEFVQKGCAVDVILCTAHGEFLSELDTRINVVDLKSPRLRNAFFPLLRYLKAERPDVLLALMWPLTLLAVTAFKFAKLPGRVVVSDHTTFSQAPLLKKKSTRIFFKLSLPMVYSFANARLAVSEGVANDLATLGNIKRSSITVLHNPVSSDTMRFTKEQNEESWQGFSGKKIVAVGALKWEKDYPTLLKAFALLLKKENAYLSIVGQGTLLSELEAIAEQLGIRKQVNFAGFSTMPSAWMASADLLVLSSSCEGFGNVIVESLDVGTAVVSTDCKSGPREILCDGKYGKLVPVGDVDALAQAMVESLNEQHDMDALKLRAAKFSVDKIAKQYLEVFR | not soluble
7 | MGSDKIHHHHHHMKKLFLVLAVLSLVLYGCLRTPPVVKDMVTTDGSLSDWGSKIKEDAADDSKWGADNELLKAGLLFDGANIYIAGEYVIGGDGNVNVFLVLIDLVGVTGAQTVSYTGLNDGNRNFTNPNGDIDLIVEVNQSNEYKVWRVSQDGSLTDITDQVTAQFGTGSTIAELKIPISEQVNQVKAVFAISGGTGGGNQWVGDFYPNQPDHDSAENGGIPQPAPVVNFVVCDKEGNVSEEINQTSEPEQPTESVIVVDGDLSDFGTPVATSTNPGGGNGANLYRLYVTYDATYLYIGFDTQNSGSWDVAYGIGIDTKPSGYTGDSDAWGRKISFGADYAVDYEIYFWWAGGSGLDSNNFCEWNGLDWNYRSIADAGGTFDYTGDTSSGLQTMEIAIPWSAIGGKQDVALIVWITGGSGSAVDSIPDDDSTIDNADEWNDSDTFTNLYLLQVN | not soluble
8 | MGSDKIHHHHHHMKKLLNTLYVTRQETYVHKERDTIVINSAGEKLAQFPALTISNILCFGQVSVSPPMMGYCGENGIGLVFYTEYGRFLARMIGKQTGNVLLRRTQYRLADDPEKANAIARVMVGAKIANARTVLMREIRNHGEHANISRAVEQLGYSLKSCQFSQSVPQTMGIEGDAAATYFSVFNGLIRGSRFQFNGRIRRPATDPVNALLSFIYSLITQECVSALMGVGLDPYVGFLHQDRPGRPSLALDLLEEFRASWADRFVLTLLNRRQLSPQAFVTEASGAVRLTDDTRKQVLVAFQERKQEEVVHPYLQEKVPYGLLPHCQALLLARHLRGDMEFYTPYLIK | not soluble
9 | MGSDKIHHHHHHMKKLTVYLATTNPHKVEEIKMIAPEWMEILPSPEKIEVVEDGETFLENSVKKAVVYGKKLKHPVMADDSGLVIYSLGGFPGVMSARFMEEHSYKEKMRTILKMLEGKDRRAAFVCSATFFDPVENTLISVEDRVEGRIANEIRGTGGFGYDPFFIPDGYDKTFGEIPHLKEKISHRSKAFRKLFSVLEKILESENR | soluble
10 | MGSDKIHHHHHHMKKVLGGLLVATAVVSLAACSGGEKKASSDVSIKDRYELDEKTPAWKLDKKKEPTKIKWYINSDWTALPFGKDVTTAQIKKDLNVDIEFISGDDSKLNAMISSGDMPDIVTLTEKTGQAALKADSWAYSLNDLAKKYDPYLMKVVNQDTFKWYALEDGKTYGYPNYSNTKADYESGNIPVNDNFVIREDVYNALGKPDVSTPENFEKVMQQIKEKYPEMTPMGFTTVGDGAGPFLDKLQDFLGVPLEDKNGKYYDRNLDKEYLEWLKTFNDVYRAGNISDDSFTDDGATFDEKVKQGNYATMLVAGTSGQGGNFTEFMKKSGTRYIAIDGPSSTSGRKPTLNQTGISGWLSNYITKDAKDPAKVTQLFTYLIDEPGQILTKYGVEGVTYAYNDQGKIDYLPEVKKLEQTDNDAYNKKYGISRFLYFNNDRVNKLKVPMESALTQMQEWGKGKLVPHFVIENINPDAGTPEARANEAIETKLNTTVISMIRAKDDKAFDKSLEDYKAFLKSNKWDAIEKIKSEKMAENRDKLK | not soluble
11 | MGSDKIHHHHHHMKKWLVLGVAAVAFFSYENTPMEQAEADYPKSGGTLIDRYTSEYPGYDWEVRRTATEEFVALTKDGKDYGKYRSKNGVTTQGAVLNKDTETTLAKKGWKAVKSYRKGNTNYLLNLDHAAVYEKKDRYVTYFFDQHDGNKVKATLAIPKEVEAKKSGFYGKASSALRTTDEKLMLRLMNWDRADYNLGALTPYSPLKPVTRAHSENMAKNNFFSHTDPERRDPFDRMKENGIRFSAAGENLSMGYPNVFAAHWGLMNSKGHRDNIMNKTFEQADTGVAFRDNAPYFTINFRTP | not soluble
12 | MGSDKIHHHHHHMKKYYLLSLISASLIGATCIQCTSPKQKSGENTLPQKSELFVSLPDYCPTPDGMAIAPNGDLILACPNFADITQPACLMRITKDGAVSKWLDVPVLEETGWASPMGLAFNEEGDLFISDNQGWSGAEKAKNKGRVLRLKFENDQLKETITVASGMEHPNGIRIRNGKLYVTQSSLSQIKDPSGLLVSGVYCFDMNDRDIAVTNTSADQNLLTTVITKNPEVQYGLDGIVFNEAGDLFVGNFGDGAIHRIKMDAEGKVVSNDVWAQDTTQLRTTDGMCIDDKGNIWVADFSANAVARVDKDGKIQRIAQSPDCDGSDGGLDQPGEPIVWNGQVIVSCFDLVTGPDKVNTKHDKPFTLAKLSLE | not soluble
